Data taken from patent US9199234.

Experiments:
[1] = target: Chorionic Gonadotropin (CG) (UniProt P01215); assay: FRET quenching titration in solution: BHQ-10-labelled antibody, Alexa-Fluor 488-labelled antigen
[2] = target: Follicle Stimulating Hormone (FSH) (UniProt P01215); assay: as above
Luteinizing Hormone (LH) [3] = target: Luteinizing Hormone (LH) (UniProt P01215); assay: as above
[4] = target: Thyroid Stimulating Hormone (TSH) (UniProt P01215); assay: as above
[5] = target: Thyroid Stimulating Hormone (TSH) (UniProt P01215); assay: i-STAT sandwich immunoassay, recombinant TSH; row antibody on capture beads; detection ALP conjugate: M4
[6] = target: Thyroid Stimulating Hormone (TSH) (UniProt P01215); assay: i-STAT sandwich immunoassay, recombinant TSH; row antibody on capture beads; detection ALP conjugate: 414B
[7] = target: Thyroid Stimulating Hormone (TSH) (UniProt P01215); assay: i-STAT sandwich immunoassay, recombinant TSH; row antibody on capture beads; detection ALP conjugate: 5409
[8] = target: Thyroid Stimulating Hormone (TSH) (UniProt P01215); assay: i-STAT sandwich immunoassay, recombinant TSH; row antibody on capture beads; detection ALP conjugate: T25C
[9] = target: Thyroid Stimulating Hormone (TSH) (UniProt P01215); assay: i-STAT sandwich immunoassay, recombinant TSH; row antibody on capture beads; detection ALP conjugate: ME130
[10] = target: Chorionic Gonadotropin (CG) (UniProt P01215); assay: i-STAT sandwich, 0.4 mIU/L TSH spiked with CG, signal increase over TSH alone; capture: row antibody; detection conjugate: 414B
Luteinizing Hormone (LH) [11] = target: Luteinizing Hormone (LH) (UniProt P01215); assay: i-STAT sandwich, 0.4 mIU/L TSH spiked with LH, signal increase over TSH alone; capture: row antibody; detection conjugate: 414B
[12] = target: Thyroid Stimulating Hormone (TSH) (UniProt P01215); assay: FRET competition on Alexa-488-labelled antigen (taken as TSH); excess unlabelled antibody first; competitor: BHQ-labelled M4
[13] = target: Follicle Stimulating Hormone (FSH) (UniProt P01215); assay: i-STAT sandwich, 0.4 mIU/L TSH spiked with FSH, signal increase over TSH alone; capture: row antibody; detection conjugate: 414B
[14] = target: Thyroid Stimulating Hormone (TSH) (UniProt P01215); assay: FRET competition on Alexa-488-labelled antigen (taken as TSH); excess unlabelled antibody first; competitor: BHQ-labelled 414B
[15] = target: Thyroid Stimulating Hormone (TSH) (UniProt P01215); assay: FRET competition on Alexa-488-labelled antigen (taken as TSH); excess unlabelled antibody first; competitor: BHQ-labelled 5409
[16] = target: Thyroid Stimulating Hormone (TSH) (UniProt P01215); assay: FRET competition on Alexa-488-labelled antigen (taken as TSH); excess unlabelled antibody first; competitor: BHQ-labelled T25C
[17] = target: Thyroid Stimulating Hormone (TSH) (UniProt P01215); assay: FRET competition on Alexa-488-labelled antigen (taken as TSH); excess unlabelled antibody first; competitor: BHQ-labelled ME130
[18] = target: Thyroid Stimulating Hormone (TSH) (UniProt P01215); assay: FRET competition on Alexa-488-labelled antigen (taken as TSH); excess unlabelled antibody first; competitor: BHQ-labelled TSH Ab 544
[19] = target: Thyroid Stimulating Hormone (TSH) (UniProt P01215); assay: i-STAT sandwich immunoassay, recombinant TSH; row antibody on capture beads; detection ALP conjugate: TSH Ab 544
[20] = target: Chorionic Gonadotropin (CG) (UniProt P01215); assay: i-STAT sandwich, 0.4 mIU/L TSH spiked with CG, signal increase over TSH alone; capture: row antibody; detection conjugate: 5409
Luteinizing Hormone (LH) [21] = target: Luteinizing Hormone (LH) (UniProt P01215); assay: i-STAT sandwich, 0.4 mIU/L TSH spiked with LH, signal increase over TSH alone; capture: row antibody; detection conjugate: 5409
[22] = target: Follicle Stimulating Hormone (FSH) (UniProt P01215); assay: i-STAT sandwich, 0.4 mIU/L TSH spiked with FSH, signal increase over TSH alone; capture: row antibody; detection conjugate: 5409
Luteinizing Hormone (LH) [23] = target: Luteinizing Hormone (LH) (UniProt P01215); assay: i-STAT LH-detecting cartridge (LH 5304 capture beads, 414B conjugate); polystyrene LH 5304 scavenger beads in the sample; signal without beads = 100%
[24] = target: Chorionic Gonadotropin (CG) (UniProt P01215); assay: i-STAT sandwich, 0.4 mIU/L TSH spiked with CG, signal increase over TSH alone; capture: row antibody; detection conjugate: TSH Ab 544
Luteinizing Hormone (LH) [25] = target: Luteinizing Hormone (LH) (UniProt P01215); assay: i-STAT sandwich, 0.4 mIU/L TSH spiked with LH, signal increase over TSH alone; capture: row antibody; detection conjugate: TSH Ab 544
[26] = target: Follicle Stimulating Hormone (FSH) (UniProt P01215); assay: i-STAT sandwich, 0.4 mIU/L TSH spiked with FSH, signal increase over TSH alone; capture: row antibody; detection conjugate: TSH Ab 544
[27] = target: Chorionic Gonadotropin (CG) (UniProt P01215); assay: i-STAT sandwich, 0.4 mIU/L TSH spiked with CG, signal increase over TSH alone; capture: row antibody; detection conjugate: T25C
Luteinizing Hormone (LH) [28] = target: Luteinizing Hormone (LH) (UniProt P01215); assay: i-STAT sandwich, 0.4 mIU/L TSH spiked with LH, signal increase over TSH alone; capture: row antibody; detection conjugate: T25C
[29] = target: Chorionic Gonadotropin (CG) (UniProt P01215); assay: i-STAT sandwich, 0.4 mIU/L TSH spiked with CG, signal increase over TSH alone; capture: row antibody; detection conjugate: ME130
[30] = target: Follicle Stimulating Hormone (FSH) (UniProt P01215); assay: i-STAT sandwich, 0.4 mIU/L TSH spiked with FSH, signal increase over TSH alone; capture: row antibody; detection conjugate: T25C
Luteinizing Hormone (LH) [31] = target: Luteinizing Hormone (LH) (UniProt P01215); assay: i-STAT sandwich, 0.4 mIU/L TSH spiked with LH, signal increase over TSH alone; capture: row antibody; detection conjugate: ME130
[32] = target: Follicle Stimulating Hormone (FSH) (UniProt P01215); assay: i-STAT sandwich, 0.4 mIU/L TSH spiked with FSH, signal increase over TSH alone; capture: row antibody; detection conjugate: ME130

Kd [1] [nM] | Kd [2] [nM] | Kd (Luteinizing Hormone (LH) [3]) [nM] | Kd [4] [nM] | electrochemical current of sandwich immunoassay [5] [nA] | electrochemical current of sandwich immunoassay [7] [nA] | electrochemical current of sandwich immunoassay [8] [nA] | electrochemical current of sandwich immunoassay [9] [nA] | relative fluorescence [12] | relative fluorescence [14] | relative fluorescence [15] | relative fluorescence [16] | relative fluorescence [17] | relative fluorescence [18] | electrochemical current of sandwich immunoassay [19] [nA] | CG CR (%) [20] [%] | LH CR (%) (Luteinizing Hormone (LH) [21]) | FSH CR (%) [22] [%] | Substance | other results
210 | 1000 | 1000 | 1.31 | 0.11 | 7.98 | 22.4 | 34.9 | 0.92 | 0.89 | 0.96 | 0.71 | 0.72 | 1 |  |  |  |  | TSH Antibody 544 (Abbott Diagnostics Division) | electrochemical current of sandwich immunoassay [6]: 25 nA; CG CR (%) [10]: 117%; LH CR (%) (Luteinizing Hormone (LH) [11]): 11.8%; FSH CR (%) [13]: 7.15%
40 | 300 | 35 | 0.08 | 40.9 | 49.7 |  | 0.68 | 0.92 | 0.97 | 0.95 | 1 | 0.97 | 0.97 | 0.83 | 13.7 | 9.89 | 6.25 | signaling mouse monoclonal antibody Fitzgerald Cat#10-T25C | electrochemical current of sandwich immunoassay [6]: 0.82 nA
 |  |  |  |  |  |  |  |  |  |  |  |  |  |  |  |  |  | Biospacific LH 5304 monoclonal antibody (mus beta-LH, Catalog #5304 SP-5) | signal remaining after scavenger beads (%) (Luteinizing Hormone (LH) [23]): 4%
0.05 | 0.1 | 0.05 | 0.04 | 41.3 | 40.3 |  |  | 0.75 | 1 | 0.81 | 0.76 | 0.86 | 0.83 | 10.2 | 84.6 | 348 | 260 | Seradyn anti-alpha-LH monoclonal antibody (Seradyn, Cat#MIT0414B) | CG CR (%) [24]: 39.2%; LH CR (%) (Luteinizing Hormone (LH) [25]): 467%; FSH CR (%) [26]: 219%
554 | 210 | 300 | 0.18 |  | 20.7 | 22.5 | 39.9 | 1 | 0.9 | 0.94 | 0.74 | 0.76 | 0.98 | 0 |  |  |  | Fitzgerald 10C-CR2151M4 mouse monoclonal antibody | 
45 | 70 | 54 | 0.04 | 50.5 | 54.7 | -0.1 |  | 0.77 | 0.99 | 0.82 | 0.88 | 1 | 0.82 | 10.8 | 11.8 | 11.1 | 3.9 | AbCAM ME-130 mouse monoclonal antibody | 
500 | 1000 | 1000 | 0.1 | 15.2 |  | 34.6 | 53.6 | 0.9 | 0.88 | 1 | 0.78 | 0.78 | 0.93 | 1.41 |  |  |  | TSH capture mouse monoclonal antibody Biospacific Cat#5409 SPTNE-5 | CG CR (%) [27]: 0.96%; LH CR (%) (Luteinizing Hormone (LH) [28]): 3.76%; CG CR (%) [29]: 0.78%; FSH CR (%) [30]: 0.65%; LH CR (%) (Luteinizing Hormone (LH) [31]): 10.1%; FSH CR (%) [32]: 2.43%
